Legend:
[1] = biological target: HLA-B*0702 (human); assay: competition vs 125I-labelled probe peptide, purified HLA, gel filtration
[2] = biological target: HLA-B*5101 (human); assay: as above
[3] = biological target: HLA-B*5301 (human); assay: as above
[4] = biological target: HLA-B*5401 (human); assay: as above
[5] = biological target: T1, HLA-A*0201 (human); assay: inhibition of 125I-labelled standard peptide binding to purified HLA, gel filtration; ratio = IC50 of standard / IC50 of test peptide
T1 construct: also called HLA-A2.1

[6] = biological target: T2, HLA-A*0201 (human); assay: competitive inhibition of 125I-labelled standard peptide binding to purified HLA, gel filtration
T2 construct: also called HLA-A2.1

[7] = biological target: T3, HLA-A*0201 (human); assay: competition with 125I-labelled standard peptide 941.01 for purified HLA, gel filtration
T3 construct: also called HLA-A2.1

[8] = biological target: T4, HLA-A*0201 (human); assay: competition with 125I-labelled standard peptide for purified HLA-A*0201, gel filtration; ratio to the standard peptide
T4 construct: Purified HLA class I molecule; also called HLA-A2.1

[9] = biological target: HLA-B*0702 (human); assay: competition with 125I probe peptide, purified HLA
[10] = biological target: HLA-B*5101 (human); assay: competition with 125I probe peptide, purified HLA
[11] = biological target: HLA-B*5301 (human); assay: competition with 125I probe peptide, purified HLA
[12] = biological target: HLA-B*5401 (human); assay: competition with 125I probe peptide, purified HLA

B1: Her2/neu.995.F1I10 (peptide)
peptide: FPASPLDSTI
notes: 10-mer analog of the HER2/neu peptide starting at position 995
IC50 [1]: 20 nM | IC50 [2]: 20 nM | IC50 [3]: 0.03 µM | IC50 [4]: 14 nM

RLPASPETHL [HER2/neu peptide, position 34, 10 amino acids]
relative binding ratio [5]: 0.0001 ratio to standard peptide

RLVHRDLAA [HER2/neu peptide, position 840, 9 amino acids]
relative binding ratio [5]: 0.0001 ratio to standard peptide

NLQVIRGRIL (Synthetic peptide) [HER2/neu A02 supermotif peptide, position 427, 10 amino acids]
relative binding ratio (IC50 of standard peptide / IC50 of test peptide) [6]: 0.0001 ratio

ALVTYNTDT (also called Her2/neu.270 (9-mer)) [HER2/neu peptide, position 270, 9 amino acids]
relative binding ratio [7]: 0.0001 ratio (IC50 of standard peptide / IC50 of test peptide)

AARPAGATL (also called Her2/neu.1159 (9-mer)) [HER2/neu peptide, position 1159, 9 amino acids]
relative binding ratio [7]: 0.0001 ratio (IC50 of standard peptide / IC50 of test peptide)

RLPQPPICT [HER2/neu peptide, position 940, 9 amino acids]
relative binding ratio [5]: 0.0002 ratio to standard peptide

TAPLQPEQL [HER2/neu peptide, position 389, 9 amino acids]
relative binding ratio [5]: 0.0002 ratio to standard peptide

ALLPPGAAST (also called Her2/neu.14 (10-mer)) [HER2/neu peptide, position 14, 10 amino acids]
relative binding ratio [7]: 0.0001 ratio (IC50 of standard peptide / IC50 of test peptide)

GAFGTVYKGI (Synthetic peptide) [HER2/neu peptide, position 729, 10 amino acids]
relative binding ratio (IC50 of standard peptide / IC50 of test peptide) [8]: 0.0001 ratio

PAARPAGATL (Synthetic peptide) [HER2/neu A02 supermotif peptide, position 1158, 10 amino acids]
relative binding ratio (IC50 of standard peptide / IC50 of test peptide) [6]: 0.0001 ratio

AALCRWGLLL (also called Her2/neu.4 (10-mer)) [HER2/neu peptide, position 4, 10 amino acids]
relative binding ratio [7]: 0.001 ratio (IC50 of standard peptide / IC50 of test peptide)

B2: Her2/neu.1157.F1I9 (peptide)
peptide: FPAARPAGI
notes: 9-mer analog of the HER2/neu peptide starting at position 1157
IC50 [1]: 9.3 nM | IC50 [2]: 131 nM | IC50 [3]: 4.23 µM | IC50 [4]: 48 nM

AVLDNGDPL (also called Her2/neu.115 (9-mer)) [HER2/neu peptide, position 115, 9 amino acids]
relative binding ratio [7]: 0.0004 ratio (IC50 of standard peptide / IC50 of test peptide)

DLAARNVLV (also called Her2/neu.845 (9-mer)) [HER2/neu peptide, position 845, 9 amino acids]
relative binding ratio [7]: 0.0002 ratio (IC50 of standard peptide / IC50 of test peptide)

DIQEVQGYV (also called Her2/neu.76 (9-mer)) [HER2/neu peptide, position 76, 9 amino acids]
relative binding ratio [7]: 0.0001 ratio (IC50 of standard peptide / IC50 of test peptide)

MAGVGSPYV (Synthetic peptide) [HER2/neu A02 supermotif peptide, position 774, 9 amino acids]
relative binding ratio (IC50 of standard peptide / IC50 of test peptide) [6]: 0.0014 ratio

CARVCYGLGM (also called Her2/neu.338 (10-mer)) [HER2/neu peptide, position 338, 10 amino acids]
relative binding ratio [7]: 0.0011 ratio (IC50 of standard peptide / IC50 of test peptide)

TAENPEYLGL [HER2/neu peptide, position 1242, 10 amino acids]
relative binding ratio [5]: 0.0001 ratio to standard peptide

MIMVKCWMI (Synthetic peptide) [HER2/neu A02 supermotif peptide, position 953, 9 amino acids]
relative binding ratio (IC50 of standard peptide / IC50 of test peptide) [6]: 0.0051 ratio

RMARDPQRFV [HER2/neu peptide, position 978, 10 amino acids]
relative binding ratio [5]: 0.002 ratio to standard peptide

CVTACPYNYL (also called Her2/neu.295 (10-mer)) [HER2/neu peptide, position 295, 10 amino acids]
relative binding ratio [7]: 0.0001 ratio (IC50 of standard peptide / IC50 of test peptide)

LVDAEEYLV (Synthetic peptide) [HER2/neu A02 supermotif peptide, position 1017, 9 amino acids]
relative binding ratio (IC50 of standard peptide / IC50 of test peptide) [6]: 0.003 ratio

AMPNQAQMRI (also called Her2/neu.705 (10-mer)) [HER2/neu peptide, position 705, 10 amino acids]
relative binding ratio [7]: 0.0007 ratio (IC50 of standard peptide / IC50 of test peptide)

DIFHKNNQL (also called Her2/neu.171 (9-mer)) [HER2/neu peptide, position 171, 9 amino acids]
relative binding ratio [7]: 0.0002 ratio (IC50 of standard peptide / IC50 of test peptide)

PAFSPAFDNL (Synthetic peptide) [HER2/neu A02 supermotif peptide, position 1211, 10 amino acids]
relative binding ratio (IC50 of standard peptide / IC50 of test peptide) [6]: 0.0001 ratio

GAMPNQAQM (T0001 prints N at position 706) [HER2/neu peptide, position 704, 9 amino acids]
relative binding ratio (IC50 of standard peptide / IC50 of test peptide) [8]: 0.0002 ratio

DIQEVQGYVL (also called Her2/neu.76 (10-mer)) [HER2/neu peptide, position 76, 10 amino acids]
relative binding ratio [7]: 0.0001 ratio (IC50 of standard peptide / IC50 of test peptide)

LVSEFSRM (Synthetic peptide) [HER2/neu A02 supermotif peptide, position 972, 8 amino acids]
relative binding ratio (IC50 of standard peptide / IC50 of test peptide) [6]: 0.0001 ratio

LVCPLHNQEV (Synthetic peptide) [HER2/neu A02 supermotif peptide, position 313, 10 amino acids]
relative binding ratio (IC50 of standard peptide / IC50 of test peptide) [6]: 0.0002 ratio

SAVVGILLVV [HER2/neu peptide, position 656, 10 amino acids]
relative binding ratio [5]: 0.0009 ratio to standard peptide

PASPETHLDM (Synthetic peptide) [HER2/neu A02 supermotif peptide, position 36, 10 amino acids]
relative binding ratio (IC50 of standard peptide / IC50 of test peptide) [6]: 0.0001 ratio

CVARCPSGV (also called Her2/neu.596 (9-mer)) [HER2/neu peptide, position 596, 9 amino acids]
relative binding ratio [7]: 0.0004 ratio (IC50 of standard peptide / IC50 of test peptide)

MARDPQRFV (Synthetic peptide) [HER2/neu A02 supermotif peptide, position 979, 9 amino acids]
relative binding ratio (IC50 of standard peptide / IC50 of test peptide) [6]: 0.0001 ratio

PAEQRASPL (Synthetic peptide) [HER2/neu A02 supermotif peptide, position 643, 9 amino acids]
relative binding ratio (IC50 of standard peptide / IC50 of test peptide) [6]: 0.0001 ratio

B3: Her2/neu.1149.F1I11 (peptide)
peptide: FPSPREGPLPI
notes: 11-mer analog of the HER2/neu peptide starting at position 1149
IC50 [1]: 190 nM | IC50 [2]: 262 nM | IC50 [3]: 5.17 µM | IC50 [4]: 263 nM

LVSEFSRMA (Synthetic peptide) [HER2/neu A02 supermotif peptide, position 972, 9 amino acids]
relative binding ratio (IC50 of standard peptide / IC50 of test peptide) [6]: 0.0001 ratio

NASLSFLQDI (Synthetic peptide) [HER2/neu A02 supermotif peptide, position 68, 10 amino acids]
relative binding ratio (IC50 of standard peptide / IC50 of test peptide) [6]: 0.0001 ratio

RLRIVRGTQL [HER2/neu peptide, position 98, 10 amino acids]
relative binding ratio [5]: 0.0001 ratio to standard peptide

NVLVKSPNHV (Synthetic peptide) [HER2/neu A02 supermotif peptide, position 850, 10 amino acids]
relative binding ratio (IC50 of standard peptide / IC50 of test peptide) [6]: 0.0001 ratio

SLRELGSGL [HER2/neu peptide, position 457, 9 amino acids]
relative binding ratio [5]: 0.0002 ratio to standard peptide

DLLEKGERL (also called Her2/neu.933 (9-mer)) [HER2/neu peptide, position 933, 9 amino acids]
relative binding ratio [7]: 0.0002 ratio (IC50 of standard peptide / IC50 of test peptide)

TIDVYMIMV [HER2/neu peptide, position 948, 9 amino acids]
relative binding ratio [5]: 0.0005 ratio to standard peptide

SVFQNLQVI [HER2/neu peptide, position 423, 9 amino acids]
relative binding ratio [5]: 0.0017 ratio to standard peptide

STDVGSCTLV [HER2/neu peptide, position 305, 10 amino acids]
relative binding ratio [5]: 0.0001 ratio to standard peptide

PAREIPDLL (Synthetic peptide) [HER2/neu A02 supermotif peptide, position 927, 9 amino acids]
relative binding ratio (IC50 of standard peptide / IC50 of test peptide) [6]: 0.0001 ratio

NVKIPVAIKV (Synthetic peptide) [HER2/neu A02 supermotif peptide, position 745, 10 amino acids]
relative binding ratio (IC50 of standard peptide / IC50 of test peptide) [6]: 0.0001 ratio

SIISAVVGIL [HER2/neu peptide, position 653, 10 amino acids]
relative binding ratio [5]: 0.0002 ratio to standard peptide

SLPTHDPSPL [HER2/neu peptide, position 1100, 10 amino acids]
relative binding ratio [5]: 0.0059 ratio to standard peptide

DLGMGAAKGL (also called Her2/neu.1089 (10-mer)) [HER2/neu peptide, position 1089, 10 amino acids]
relative binding ratio [7]: 0.0001 ratio (IC50 of standard peptide / IC50 of test peptide)

RASPLTSII [HER2/neu peptide, position 647, 9 amino acids]
relative binding ratio [5]: 0.0002 ratio to standard peptide

FPGGLRELQI (analog peptide) [Her2/neu.133.F1I10]
IC50 [9]: 306 nM | IC50 [10]: 1770 nM | IC50 [11]: 310 nM | IC50 [12]: 476 nM

B4: Her2/neu.1151.F1I9 (peptide)
peptide: FPREGPLPI
notes: 9-mer analog of the HER2/neu peptide starting at position 1151
IC50 [1]: 0.3 nM | IC50 [2]: 14 nM | IC50 [3]: 2.82 µM | IC50 [4]: 4 nM

B5: HER2/neu peptide, position 413, 10 amino acids (peptide)
peptide: SAWPDSLPDL
notes: T0022 prints L there and the analog Her2/neu.415.I8 implies a native L, so L is used
relative binding ratio [5]: 0.0002 ratio to standard peptide

Source: US20040018971A1 (published 2004)
